The record followed here is IntAct's records for PubMed 17357085.

To fix the notation:
B1: Homeobox protein SIX5 (Homo sapiens), Q8N196 (parent)
chain: MATLPAEPSAGPAAGGEAVAAAAATEEEEEEARQLLQTLQAAEGEAAAAAGAGAGAAAAGAEGPGSPGVPGSPPEAASEPPTGLRFSPEQVACVCEALLQAGHAGRLSRFLGALPPAERLRGSDPVLRARALVAFQRGEYAELYRLLESRPFPAAHHAFLQDLYLRARYHEAERARGRALGAVDKYRLRKKFPLPKTIWDGEETVYCFKERSRAALKACYRGNRYPTPDEKRRLATLTGLSLTQVSNWFKNRRQRDRTGAGGGAPCKSESDGNPTTEDESSRSPEDLERGAAPVSAEAAAQGSIFLAGTGPPAPCPASSSILVNGSFLAASGSPAVLLNGGPVIINGLALGEASSLGPLLLTGGGGAPPPQPSPQGASETKTSLVLDPQTGEVRLEEAQSEAPETKGAQVAAPGPALGEEVLGPLAQVVPGPPTAATFPLPPGPVPAVAAPQVVPLSPPPGYPTGLSPTSPLLNLPQVVPTSQVVTLPQAVGPLQLLAAGPGSPVKVAAAAGPANVHLINSGVGVTALQLPSATAPGNFLLANPVSGSPIVTGVALQQGKIILTATFPTSMLVSQVLPPAPGLALPLKPETAISVPEGGLPVAPSPALPEAHALGTLSAQQPPPAAATTSSTSLPFSPDSPGLLPNFPAPPPEGLMLSPAAVPVWSAGLELSAGTEGLLEAEKGLGTQAPHTVLRLPDPDPEGLLLGATAGGEVDEGLEAEAKVLTQLQSVPVEEPLEL
partner: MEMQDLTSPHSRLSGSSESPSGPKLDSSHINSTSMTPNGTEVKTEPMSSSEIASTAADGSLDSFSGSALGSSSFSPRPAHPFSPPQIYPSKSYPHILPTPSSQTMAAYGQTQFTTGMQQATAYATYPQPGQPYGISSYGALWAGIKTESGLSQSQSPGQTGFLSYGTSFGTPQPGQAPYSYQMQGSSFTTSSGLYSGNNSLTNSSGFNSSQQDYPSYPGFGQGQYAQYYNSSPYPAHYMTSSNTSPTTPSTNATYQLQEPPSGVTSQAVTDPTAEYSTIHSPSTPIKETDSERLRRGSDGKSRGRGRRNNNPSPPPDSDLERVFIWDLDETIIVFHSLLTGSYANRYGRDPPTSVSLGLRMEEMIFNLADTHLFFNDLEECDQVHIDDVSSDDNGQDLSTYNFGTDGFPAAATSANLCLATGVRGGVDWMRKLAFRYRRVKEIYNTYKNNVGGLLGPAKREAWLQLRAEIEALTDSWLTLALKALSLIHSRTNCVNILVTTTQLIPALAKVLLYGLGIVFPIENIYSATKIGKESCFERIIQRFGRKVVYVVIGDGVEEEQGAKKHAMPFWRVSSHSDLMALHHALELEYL

In this experiment the parent is B1. To be noted: with eya1_mouse Eya1, P97767.
Regarding T552M, the “effect of a mutation on the interaction” value is “decreasing interaction”. Take A158T: the “effect of a mutation on the interaction” value is “decreasing interaction”.
